Results published in patent WO2016073894A1 (dated 2016).
Numbering of substitutions follows the chain as printed. In names and notes the source's numbering stands. One block for each binder: values may come before it.

Key:
human IL-6 [1] = target: T1, human IL-6 (human, UniProt P05231 30-212); assay: cell-based or functional assay
hyper IL-6 = assay: cell-based or functional assay
human IL-6 [2] = target: T1, human IL-6; assay: yeast Fab display; biotinylated IL-6 remaining after overnight competition with 2 uM IL-6
human IL-6 [3] = target: T1, human IL-6; assay: yeast system; format in the assay not stated
[4] = target: T2, IL-6R on HEK-Blue IL6 reporter cells (UniProt P08887 20-468, limits assumed); assay: cell-based or functional assay
T2 sequence (looked up): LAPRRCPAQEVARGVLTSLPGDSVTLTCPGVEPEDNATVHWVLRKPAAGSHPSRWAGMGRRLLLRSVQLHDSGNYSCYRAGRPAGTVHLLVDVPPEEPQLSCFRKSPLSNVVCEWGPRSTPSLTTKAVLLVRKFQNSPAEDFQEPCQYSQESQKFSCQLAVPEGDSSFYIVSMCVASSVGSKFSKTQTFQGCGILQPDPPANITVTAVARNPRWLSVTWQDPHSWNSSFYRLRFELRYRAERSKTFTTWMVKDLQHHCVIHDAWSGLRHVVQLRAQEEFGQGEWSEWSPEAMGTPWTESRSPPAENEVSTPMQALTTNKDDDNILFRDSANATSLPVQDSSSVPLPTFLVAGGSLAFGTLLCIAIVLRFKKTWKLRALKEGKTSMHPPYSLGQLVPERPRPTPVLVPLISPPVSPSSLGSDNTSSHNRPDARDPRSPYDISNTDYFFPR

human IL-6 [5] = target: T1, human IL-6; assay: ELISA on plates coated with human IL-6, hybridoma supernatants

B3: EBI-029 Fab I51T/S55G (Fab, V domains shown)
VH: QVQLVQSGAEVKKPGSSVKVSCKASGYALSNYLIEWVRQAPGQGLEWMGVTTPGGGTINYAQKFQGRVTITADESTSTAYMELSSLRSEDTAVYYCARSRWDPLYYYALEYWGQGTTVTVSS
VL: DIVMTQSPDSLAVSLGERATINCRASESVDNYGIPFMNWYQQKPGQPPKLLIYAASNRGSGVPDRFSGSGSGTDFTLTISSLQAEDVAVYYCQQSEEVPLTFGQGTKLEIKR
notes: The mutations were introduced into the wild-type EBI-029 Fab; also called 151T/S55G
- binding result (human IL-6 [2]): binds

B5: EBI-029 Fab S30P/I51T/S55G (Fab, V domains shown)
VH: B3 VH with S30P
VL: B3 VL
- binding result (human IL-6 [2]): binds

B6: EBI-029 Fab A28V/I51T/S55G (Fab, V domains shown)
VH: B3 VH with A28V
VL: B3 VL
- binding result (human IL-6 [2]): binds

B7: Tocilizumab (antibody, human IgG1, kappa, V domains shown)
VH: QVQLQESGPGLVRPSQTLSLTCTVSGYSITSDHAWSWVRQPPGRGLEWIGYISYSGITTYNPSLKSRVTMLRDTSKNQFSLRLSSVTAADTAVYYCARSLARTTAMDYWGQGSLVTVSS
VL: DIQMTQSPSSLSASVGDRVTITCRASQDISSYLNWYQQKPGKAPKLLIYYTSRLHSGVPSRFSGSGSGTDFTFTISSLQPEDIATYYCQQGNTLPYTFGQGTKVEIKR
- IC50, cis-signaling, HEK-Blue IL6 cells, 20 pM free IL-6 [4]: 12.9 nM

Other lines, results leading:

- IC50 fold less than that of EBI-029, HEK-Blue IL6 cells (human IL-6 [1]): > 50 fold
- IC90 fold less than that of EBI-029, HEK-Blue IL6 cells (human IL-6 [1]): ~4000 fold
- fold decrease in IC50 against EBI-029, HEK-Blue IL6 cells, 20 pM IL-6 (human IL-6 [1]): ~50 fold
- fold decrease in IC90 against EBI-029, HEK-Blue IL6 cells, 20 pM IL-6 (human IL-6 [1]): > 100 fold
B1: EBI-030 IgG2 (antibody)
heavy: QVQLVQSGAEVKKPGSSVKVSCKASGYVLPNYLIEWVRQAPGQGLEWMGVTTPGGGTINYAQKFQGRVTITADESTSTAYMELSSLRSEDTAVYYCARSRWDPLYYYALEYWGQGTTVTVSSASTKGPSVFPLAPCSRSTSESTAALGCLVKDYFPEPVTVSWNSGALTSGVHTFPAVLQSSGLYSLSSVVTVPSSNFGTQTYTCNVDHKPSNTKVDKTVERKCCVECPPCPAPPVAGPSVFLFPPKPKDTLMISRTPEVTCVVVDVSHEDPEVQFNWYVDGVEVHNAKTKPREEQFNSTFRVVSVLTVVHQDWLNGKEYKCKVSNKGLPAPIEKTISKTKGQPREPQVYTLPPSREEMTKNQVSLTCLVKGFYPSDIAVEWESNGQPENNYKTTPPMLDSDGSFFLYSKLTVDKSRWQQGNVFSCSVMHEALHNHYTQKSLSLSPGK
light: DIVMTQSPDSLAVSLGERATINCRASESVDNYGIPFMNWYQQKPGQPPKLLIYAASNRGSGVPDRFSGSGSGTDFTLTISSLQAEDVAVYYCQQSEEVPLTFGQGTKLEIKRTVAAPSVFIFPPSDEQLKSGTASVVCLLNNFYPREAKVQWKVDNALQSGNSQESVTEQDSKDSTYSLSSTLTLSKADYEKHKVYACEVTHQGLSSPVTKSFNRGEC

- IC50, trans-signaling, HEK-Blue IL6 cells, 200 pM hyper IL-6 (hyper IL-6): 32 pM
- fold more potent than tocilizumab, cellular assays (hyper IL-6): > 900 fold
- IC50, cis-signaling, HEK-Blue IL6 cells, 20 pM free IL-6 (human IL-6 [1]): 14.2 pM
- IC50 fold less than that of EBI-029, HEK-Blue IL6 cells (human IL-6 [1]): > 75 fold
- IC90 fold less than that of EBI-029, HEK-Blue IL6 cells (human IL-6 [1]): ~350 fold
- fold decrease in IC50 against EBI-029, HEK-Blue IL6 cells, 20 pM IL-6 (human IL-6 [1]): ~50 fold
- fold decrease in IC90 against EBI-029, HEK-Blue IL6 cells, 20 pM IL-6 (human IL-6 [1]): > 100 fold
- fold greater potency than tocilizumab, cis-signaling, HEK-Blue IL6 cells (human IL-6 [1]): > 900 fold
B2: EBI-031 (antibody, human IgG2, kappa)
heavy: B1 heavy with H311A
light: B1 light

- Kd (human IL-6 [3]): 0.343 nM
B4: h64 IgG (antibody, V domains shown)
VH: B3 VH with L29F, T51I, G55S
VL: DIVMTQSPDSLAVSLGERATINCRASESVDNYGISFMNWYQQKPGQPPKLLIYAASNQGSGVPDRFSGSGSGTDFTLTISSLQAEDVAVYYCQQSKEVPLTFGQGTKLEIK
notes: Expressed as inline fusions with the human IgG1 constant domains; also called original h64 antibody; the original humanized molecule

- binding result (human IL-6 [5]): binds
B8: murine 64 antibody (antibody, V domains shown)
VH: QVQLQQSGAELVRPGTSVKVSCKASGYAFSNYLIEWVKQRPGQGLEWIGVITPGSGTINYNEKFKGKAVLTADKSSSTVYMQLSSLTSDDSAVYFCAKSRWDPLYYYALEYWGQGTSVTVSS
VL: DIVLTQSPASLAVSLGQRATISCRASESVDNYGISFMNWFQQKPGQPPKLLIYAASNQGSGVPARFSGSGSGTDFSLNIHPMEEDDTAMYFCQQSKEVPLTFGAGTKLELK
notes: Murine monoclonal from a hybridoma; also called Hybridoma 64; m64
